For this assay, the target named is T1, tyrosine phosphorylated β-catenin (Homo sapiens, UniProt P35222).
T1 construct: expressed in transfected cells; host or cells: human 293 embryonic kidney cells, transient; CMV-promoter vector; immunoprecipitated with anti-β-catenin antibody
T1 sequence (P35222 1-781): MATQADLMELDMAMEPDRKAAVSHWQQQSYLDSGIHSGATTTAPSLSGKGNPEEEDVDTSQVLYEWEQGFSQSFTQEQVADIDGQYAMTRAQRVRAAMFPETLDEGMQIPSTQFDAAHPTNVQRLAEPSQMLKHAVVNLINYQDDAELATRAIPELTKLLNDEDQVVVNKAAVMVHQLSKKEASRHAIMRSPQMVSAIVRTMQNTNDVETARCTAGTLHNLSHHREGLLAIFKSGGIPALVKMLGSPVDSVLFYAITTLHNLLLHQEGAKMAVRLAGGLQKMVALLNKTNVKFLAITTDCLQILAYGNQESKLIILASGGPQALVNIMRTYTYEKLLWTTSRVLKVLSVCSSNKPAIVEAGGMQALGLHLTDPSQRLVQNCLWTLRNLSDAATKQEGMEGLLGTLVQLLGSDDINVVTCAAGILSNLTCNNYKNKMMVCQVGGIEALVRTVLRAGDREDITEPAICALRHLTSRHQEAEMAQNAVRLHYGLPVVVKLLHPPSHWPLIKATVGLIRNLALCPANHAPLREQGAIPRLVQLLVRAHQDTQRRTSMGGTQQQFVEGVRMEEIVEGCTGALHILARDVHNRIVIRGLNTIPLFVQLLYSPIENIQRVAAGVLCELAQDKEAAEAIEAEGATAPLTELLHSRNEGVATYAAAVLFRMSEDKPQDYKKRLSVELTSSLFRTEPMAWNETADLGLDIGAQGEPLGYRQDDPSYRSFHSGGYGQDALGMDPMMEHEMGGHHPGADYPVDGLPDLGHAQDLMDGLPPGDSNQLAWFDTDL
The assay is described as follows: In vitro dephosphorylation assay. Type of assay: biochemical. The settings on record: 200 ng GST fusion protein, 25° C.; within the first five minutes; anti-phosphotyrosine Western blot. The protocol: After 24 h of serum starvation, the cells were stimulated with pervanadate before lysis. β-catenin was subsequently immunoprecipitated with an anti-β-catenin antibody, and precipitates were incubated for the indicated time intervals with GST-PTP LAR cytoplasmic fusion protein (left), GST-PTP LAR PTP D1 C1522S-mutant (middle) or GST-PTP LAR PTP D2 C1813S-mutant (right). Reactions were terminated after the indicated periods of time, and proteins were separated by SDS-PAGE. Tyrosine phosphorylation levels of […] were analyzed by Western blotting with an anti-phosphotyrosine antibody (top). […] Arrows indicate the proteins of interest.
In Vitro Dephosphorylation Assay—β-catenin was transiently overexpressed in human 293 embryonic kidney cells. Cells were serum-starved, treated with pervanadate ([…]/0.1 mM Na-orthovanadate) for 10 minutes and lysed. Immunoprecipitations were performed as described above except that HNTG without pyrophosphate, ammonium-molybdate, and Na-orthovanadate was used. PTP activity towards tyrosine phosphorylated β-catenin was assayed in 200 μL reactions at 25° C. containing 25 mM HEPES, pH 7.5, 5 mM EDTA, 10 mM DTT, and 1 mg/mL BSA with 200 ng of GST-hPTP LAR cytoplasmic, GST-hPTP LAR D1 C1522S, or GST-hPTP LAR D2 C1813S added. Reactions were stopped by washing with HNTG and subsequently separated by SDS-PAGE. The tyrosine phosphorylation status was analyzed by Western blotting using anti-phosphotyrosine antibody.
The association of β-catenin and plakoglobin with PTP LAR prompted the investigation of whether these proteins could represent actual substrates for PTP LAR. […] After different time intervals, the reactions were terminated and analyzed with an anti-phosphotyrosine specific antibody.

The record followed here is patent US20090074722A1, “Products and methods for treating PTP lar diseases” (MAX-PLANCK-GESELLSCHAFT ZUR, priority 1999, published 2009).

B1: GST-PTP LAR PTP D2 C1813S: GST fusion of PTP LAR cytoplasmic domain with inactivated PTP domain 2 (protein)
chain: KRKRTHSPSSKDEQSIGLKDSLLAHSSDPVEMRRLNYQTPGMRDHPPIPITDLADNIERLKANDGLKFSQEYESIDPGQQFTWENSNLEVNKPKNRYANVIAYDHSRVILTSIDGVPGSDYINANYIDGYRKQNAYIATQGPLPETMGDFWRMVWEQRTATVVMMTRLEEKSRVKCDQYWPARGTETCGLIQVTLLDTVELATYTVRTFALHKSGSSEKRELRQFQFMAWPDHGVPEYPTPILAFLRRVKACNPLDAGPMVVHCSAGVGRTGCFIVIDAMLERMKHEKTVDIYGHVTCMRSQRNYMVQTEDQYVFIHEALLEAATCGHTEVPARNLYAHIQKLGQVPPGESVTAMELEFKLLASSKAHTSRFISANLPCNKFKNRLVNIMPYELTRVCLQPIRGVEGSDYINASFLDGYRQQKAYIATQGPLAESTEDFWRMLWEHNSTIIVMLTKLREMGREKCHQYWPAERSARYQYFVVDPMAEYNMPQYILREFKVTDARDGQSRTIRQFQFTDWPEQGVPKTGEGFIDFIGQVHKTKEQFGQDGPITVHCSAGVGRTGVFITLSIVLERMRYEGVVDMFQTVKTLRTQRPAMVQTEDQYQLCYRAALEYLGSFDHYAT
Regarding B1, the “tyrosine phosphorylation signal of β-catenin” value is recorded as “significant reduction in the tyrosine phosphorylation signal”.

B2: GST-PTP LAR PTP D1 C1522S: GST fusion of PTP LAR cytoplasmic domain with catalytically inactivated PTP domain 1 (protein)
chain: B1 chain
In the case of B2, the “tyrosine phosphorylation signal of β-catenin” value is reported as “No change in phosphorylation levels”.
